In publication PMC6868385:

Molecular target: GFP-tagged BLM (Bloom helicase) (human) (UniProt P54132)
Assay: single-molecule fluorescence intensity

stoichiometry N (molecules of GFP–BLM per complex): 3.1
Substance: GFP-tagged BLM (Bloom helicase), P54132 1-1417 (enzyme; other documents disagree on this pair)
